{"source": "paper PMC10538476", "target": "Human macrophage galactose-type lectin (MGL) isoform 2 extracellular domain (human)", "assay": "SAXS; MGL-ECD at 1 mg/mL in 25 mM Tris pH 8, 150 mM NaCl, 4 mM CaCl2, 25°C; ESRF BM29 beamline; oligomeric state from the estimated molecular weight", "data": [{"substance": "Human macrophage galactose-type lectin (MGL) isoform 2 extracellular domain (domain or fragment)", "values": [{"measurement": "stoichiometry N", "result": 3}]}]}
